Measured values from the supplement of paper PMC9170038.

Tested on: MS2 coat protein
Assay: apparent KD of MS2 coat protein; designed switch direction (-1 OFF switch, 1 ON switch): -1; higher = weaker reporter binding
Summary of the method: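 On Illumina chips, designed RNA switches with common flanks were made by stalled E. coli RNA polymerase. Titrations with SNAP-549-labelled MS2 coat protein, doubling from 0.7 or 1.5 nM to 3 µM, were done with no input, with 200 uM small-molecule ligand, or with an oligonucleotide input. Apparent KD is the median per design over clusters, from curve fits of normalised cluster fluorescence.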

[1] = Eterna round: R95, input ligand: microRNA oligo, concentration not stated
[2] = Eterna round: R95, input ligand: FMN 200 uM
[3] = Eterna round: R95, input ligand: none
[4] = input ligand: microRNA oligo, concentration not stated

Sequence | apparent KD of MS2 coat protein [1] [nM] | apparent KD of MS2 coat protein [2] [nM] | apparent KD of MS2 coat protein [3] [nM] | apparent KD of MS2 coat protein (input ligand: FMN 200 uM) [nM] | apparent KD of MS2 coat protein [4] [nM] | apparent KD of MS2 coat protein (input ligand: none) [nM]
GGCAAUAACGAGGAUAUCGUAUCGGAAACGAUACGAGAAGGUGUAACAUGAGGAUCACCCAUGUUCCUCAAGCC [Fiskers Ex 6 - 8] (puzzle: Exclusion 6) | 33.9 |  |  |  |  | 
CCUCAACAGUAGGAUAUCAUCAAACUAUUGUGAUGAGAAGGACUGACAUGAGGAUCACCCAUGUUAACGUGAUA [Exclusion 6 - 6:a] (puzzle: Exclusion 6) | 38.4 | 38.9 | 44.9 |  |  | 
AUACCACGAGGAUAUCGUCUAUUCCACAUGAGGAUCACCCAUGUUAUCCAUGUUUCGUUUCGAGAAGGCGUGGGUU [JR_E5_Sub074] (Eterna round: R96, puzzle: Exclusion 5) |  |  |  | 50.8 | 38.2 | 51.6
AGAAAUGCCCAUGGCCGCAAGCUCUUUGCUUGUCUUACCACAUGAGGAUCACCCAUGUGACAUGGGCUCCUUAUAAU [Riquarge] (puzzle: Sensor v3, turn-off variant 2) | 9.77 | 13.9 | 12 |  |  | 
UACAUGAGGAUCACCCAUGUUUUGUCGUGUAUGGUAUUUAUCUAGGAUAUCAAUUGAAUUAUUUAUGAGAAGGAGAAUAUUAAU [JMF's solution 58] (Eterna round: R96, puzzle: Exclusion NG 3) |  |  |  | 42 | 36.4 | 49
GGUUGGCGAGGAUAUACAUGAGGAUCACCCAUGUGAGAAAAAAAAGUGAGGAAGAAAAGUAGAAGGCGCUGACG [salish99_ex3_r3_015] (puzzle: Exclusion 3) | 37.7 | 67.7 | 35.6 |  |  | 
AAUAACAAGCUGAUCCUUCACAUGAGGAUCACCCAUGUGCUCGUCUUGUAAAGUACUAUCACGAAAGUGAUAGUACA (Eterna round: R97, puzzle: Sensor, turn-off variant 1) |  |  |  | 127 |  | 125
UUUUAACAUGAGGAUCACCCAUGUGAGGAUAUCAUUUUUUUUUUUUUUUUUUUUUUUUUGAGAAGGCACAUUUU [My solution] (puzzle: Exclusion 1) | 37 | 11.9 | 14.2 |  |  | 
UAUGUUUUAGGAUAUUGUACUGCUGACAUGAGGAUCACCCAUGUAUGCUAACUCGGCCGUCGAGAAGGAGAAUAUG [BotMod 30 - Jieux - Exclusion 5] (Eterna round: R97, puzzle: Exclusion 5) |  |  |  | 43.6 |  | 63.8
ACAUGUCAUCGAGGAUAUUGCACACAUGAGGAUCACCCAUGUAUACGGUUGCUCUUGCGUGAGUUCGAGAAGGCGAUGUACAUU [Ex NG2 #86] (Eterna round: R96, puzzle: Exclusion NG 2) |  |  |  | 109 | 198 | 313
GUAACAACUAGAGGAUAUCAGCACGAUUAGUGCUGAGAAGGCUAGAGUUACAUGAGGAUCACCCAUGUCUAGAGAUCAUUAAUU [ENG1/13-A1] (Eterna round: R96, puzzle: Exclusion NG 1) |  |  |  | 155 | 53.2 | 79.7
UUUAAUUUUUUUUUUUUACAAGCUUUUUGCUCGUCUUAUACAUGAGGAUCACCCAUGUGGGUGGAAGGUAAAUUAUC [JMF 70] (puzzle: Sensor v3, turn-off variant 2) | 26.7 | 79.4 | 176 |  |  | 
CGGCGGGCAGGAUAUGGAAAUAAUAACAUGAGGAUCACCCAUGUAAAUAAAUGGGAAUAACCAGAAGGGCUUGUUG [-18.2, -17.7 kcal, A 37%] (Eterna round: R97, puzzle: Exclusion 5) |  |  |  | 49.7 |  | 90.9
UGAGAACUGCGAGGAUAUACAUGAGGAUCACCCAUGUAAUAGUGUGAGGCUUUGCCUCACACAAUGUAGAAGGCGCAGUUCUCU [Mat - Exclusion NG 2 - Mod of JL - D7] (Eterna round: R96, puzzle: Exclusion NG 2) |  |  |  | 18.4 | 10.1 | 11.9
CGUGCGUAUGUGAGGAUAUGCUGGUCCUUGGAUCGGCAGAAGGCACAUGAGGAUCACCCAUGUGGUGUCGUGCA [salish99_Bmod_ex4_090] (puzzle: Brourd's mod of Exclusion 4) | 190 |  |  |  |  | 
UAUUUUAAAGUAAGGAUAUCGGUCCGAAAGGACUACGAGAAGGUACAUGAGGAUCACCCAUGUGAAAUAAGAAU [Mod of Zala 23 - Jieux - Brourd's Mod of Exclusion 4] (Eterna round: R97, puzzle: Brourd's mod of Exclusion 4) |  |  |  | 20.8 |  | 15
UUUUAGCAAGCGAGUAUUAACAUGAGGAUCACCCAUGUGCAUCCAGUAUUACUUUUAGAUCAAGCUCGUCUUAUAUA [JR_STOV1_v2_Sub082] (Eterna round: R97, puzzle: Sensor, turn-off variant 1) |  |  |  | 199 |  | 285

Sequence | apparent KD of MS2 coat protein [1] [nM] | apparent KD of MS2 coat protein [2] [nM] | apparent KD of MS2 coat protein [3] [nM] | apparent KD of MS2 coat protein (input ligand: FMN 200 uM) [nM] | apparent KD of MS2 coat protein [4] [nM] | apparent KD of MS2 coat protein (input ligand: none) [nM]
CGUAGCAAUGUGAGGAUAUCUAGAGCCUCGGCUCUAGAGAAGGCACAUGAGGAUCACCCAUGUGAUUAGCUACG [BmEx4/9-B2] (Eterna round: R97, puzzle: Brourd's mod of Exclusion 4) |  |  |  | 597 |  | 405
GUGUAACAUGAGGAUCACCCAUGUCAGGAUAUGCGAAUUUCAUCAAAAGAUGAAAUUUGCAGAAGGGACUGUAC [Omei Ex1 A24] (Eterna round: R97, puzzle: Exclusion 1) |  |  |  | 99.2 |  | 60.9
UUUGUGUAAGGAUAUGCGAGCCACGGAAAUAAAACGUGGAGGUAGAAGGUACAUGAGGAUCACCCAUGUAAAAC [Mod of Anonveat 21 - Jieux - Exclusion 4] (Eterna round: R97, puzzle: Exclusion 4) |  |  |  | 54.8 |  | 30
AGUACUAACACGAAAGUGUUAGUACAAUAAGCUUGUGAAACAUGAGGAUCACCCAUGUCCUCAUAAGCUCGUCUUAU [salish99_TOv2_r3_001again] (puzzle: Sensor v3, turn-off variant 2) | 648 | 16.7 | 15.9 |  |  | 
GAGUGGUGAGGAUAUACAUGAGGAUCACCCAUGUGCUUCAGCUAGGAGACUAGCAUUGGUAGAAGGCAUUACUC [Mod of lroppy 8 - Jieux - Exclusion 3] (Eterna round: R97, puzzle: Exclusion 3) |  |  |  | 102 |  | 33.6
UAAAAGUGAGGAUAUCCAAUAUAUGACAUGAGGAUCACCCAUGUUUCCACUCGUACCUCCGGAGAAGGCACAAAAU [Ex5 #60] (Eterna round: R97, puzzle: Exclusion 5) |  |  |  | 25.2 |  | 28.6
UAAUGUAUAUAGGAUAUCUAGCUGGAAACAGCUAGAGAAGGAUGUACAUGAGGAUCACCCAUGUAAAUCGUGAA [Ex6/13-B1] (Eterna round: R97, puzzle: Exclusion 6) |  |  |  | 60.4 |  | 24.9
CUUUUGUGAGGAUAUCAGUAGUAAAUUAAUAAAAUUACUACUGAGAAGGCACAUGAGGAUCACCCAUGUUCCUC [salish99_ex3_r3_078] (puzzle: Exclusion 4) | 41.9 |  |  |  |  | 
GAUGUUCUGGUCAGGAUAUGCAUCCGUCGGCCGGAGCAGAAGGGACAUGAGGAUCACCCAUGUGCGGGUACAAA [Onvegeor] (puzzle: Brourd's mod of Exclusion 4) | 38.4 |  |  |  |  | 
AGAUGCUUAAGUCGACAUGAGGAUCACCCAUGUACAGUUAACGAGGAUAUCCGAGAUAAAUAAUAGGAGAAGGCGUGAUCAUGA [Ex NG3 #2] (Eterna round: R96, puzzle: Exclusion NG 3) |  |  |  | 56.6 | 363 | 277
CUUCGUAUAGAGGAUAUAGGAUACCUCGGUGUCCUAGAAGGCUGUACAUGAGGAUCACCCAUGUACUUCAGAUC [Exclusion 6 - B - 14:d] (puzzle: Exclusion 6) | 12.6 |  |  |  |  | 
CGCUGGACAGGAUAUGUUCUUGGGCACUUGAGGAUCACCCAAGUCAUCGGGACAUCAGGCACAGAAGGGUCGUUGG [salish99_ex5_r4_029] (Eterna round: R97, puzzle: Exclusion 5) |  |  |  | 22.2 |  | 25.6
GAUACCCAAGUCAGGAUAUCGGGAUACGAAAGUCACGAGAAGGGACAUGAGGAUCACCCAUGUAAAUAAAUAAA [Arege] (puzzle: Brourd's mod of Exclusion 4) | 31.1 | 62.7 | 33.2 |  |  | 
AAAAAGGUAGGAUAUACGAAAAAAAAGGGUAAAAUAAAUAAACAUGAGGAUCACCCAUGUAGAAGGACCAAAAA [Mat - Exclusion 2 - Tesla mod - D38] (Eterna round: R96, puzzle: Exclusion 2) |  |  |  |  | 22.8 | 
AAAAAGUGAGGAUAUACAUGAGGAUCACCCAUGUAAUAAAAAAAAAGGGUGGAAGAAAGUAGAAGGCACCAAAA [Ex 3 May 48] (Eterna round: R96, puzzle: Exclusion 3) |  |  |  | 323 | 64.5 | 65.3
UAAAAUAAACAUGAGGAUCACCCAUGUGAAUGGACUCCUCGGGAGGAUAUUCUGCUUAAAGGUCAGGAGAAGGCCCAUUGCAAU [Isinza] (Eterna round: R96, puzzle: Exclusion NG 3) |  |  |  | 545 | 242 | 197
AUGUACCGAAGAAGUUGUAACAUGAGGAUCACCCAUGUCGAAGUGAGGACAGGGAAGAGAAGCUGUGCUCGUCAUAG [Eternabot (L2) Solution 17] (Eterna round: R97, puzzle: Sensor, turn-off variant 1) |  |  |  | 71.6 |  | 77.9
